Measurements taken from the DeepSol protein solubility set.

Assay: soluble on expression in E. coli; label from the status in PepcDB or PDB records

| Sequence | soluble on expression in E. coli |
| --- | --- |
| MIKLIATIIVSTLILGSCSTMKDEIEKVPASQYKGQDFQPLAEKSAIAHAKKYREEYEKLGEQFFKDNFSLNVKATNVVGSGDGAEVYVHCDDHDIVFNASIPFDMESIHEEGSMRSNDNGDTMSMMVGTVLSGFEYRANKEKMDNLEKYLKDKEDKYHYTGFTDEAITKTQNIGYQNNYFYITTSSTKLRDYRKHFEPLIKESDDDFKKHMKQLKSKKDTYINTEITTTLFSTLDEYDEKIIRKNTLSMAKEMRKEPSIPHNFTFHLLFSNNKLKINDPNISNNQINEYRVFDHDGFKNLEHHHHHH | not soluble |
| MAHHHHHHMKEHSHIIGLGDFFADAKKCWVLLASKSPRRIELMKLMGVSNLYICESGFEENLDKKQFASAEHYVKENALQKGLNVASHVWFGDQANTHSEGNVKEEETKKSTQQGSDSGHLSIGQPENEQHCTDATKKHQVKSLHSTYDPIPKVIISCDTIVTLKDEIIEKPLNKEHAREILKKLSSNIHCVYTAVCIFLHKTKVPITFIEKTDVHFDDLLEQDILEYLNSSEPYDKAGAYSIQGVGCQFIKKINGCYYNVMGLPINKLSKTLTQLCVEGKISA | soluble |
| MDSHQQPYASQAQADTTLFPEQTRESLQALAVKLQPLIEGHRLDNLVDLLSLLSDIVDLLDPAMVDRLAQLFEQVTSVGWSVGNAVRVAKAELLREQPPSLKDLLRLLRDADSRRGLALVLGSLRSLGRQLAAEQEVAHGA | not soluble |
| MNDKEKIYNQLHHDAPIQIMPAPENLFVEYIEDGEVWYSPVVCIALSKAHNINFYDSDDVGCIDKAATCSIKKFNPETGEFEQFSKMAQKEITQ | not soluble |
| MKHDHFIVQSPAAPAQQLLLLFHGVGDNPVSMGQIGSWFAPQFPDALIVSIGGVEPCGPNGRQWFSLQGVTEENRQQRIDAIMPTFIEIVRYWQEKSGVSPLATALIGFSQGAIMSLESIKAAPDLASRVIAFNGRYATLPETATTATTIHLIHGGEDRVIDLAWAVSAEEALQQAGGDVTLDIVDDLGHAIDDRSMQLAIERLRYTVPKHY | not soluble |
| MELRVGNKYRLGRKIGSGSFGDIYLGANIASGEEVAIKLECVKTKHPQLHIESKFYKMMQGGVGIPSIKWCGAEGDYNVMVMELLGPSLEDLFNFCSRKFSLKTVLLLADQMISRIEYIHSKNFIHRDVKPDNFLMGLGKKGNLVYIIDFGLAKKYRDARTHQHIPYRENKNLTGTARYASINTHLGIEQSRRDDLESLGYVLMYFNLGSLPWQGLKAATKRQKYERISEKKMSTPIEVLCKGYPSEFSTYLNFCRSLRFDDKPDYSYLRQLFRNLFHRQGFSYDYVFDWNMLKFGAARNPEDVDRERREHEREERMGQLRGSATRALPPGPPTGATANRLRSAAEPVASTPASRIQPAGNTSPRAISRVDRERKVSMRLHRGAPANVSSSDLTGRQEVSRIPASQTSVPFDHLGK | not soluble |
| MKKLTFEIRSPAHQQNAIHAVQQILPDPTKPIVVTIQERNRSLDQNRKLWACLGDVSRQVEWHGRWLDAESWKCVFTAALKQQDVVPNLAGNGFVVIGQSTSRMRVGEFAELLELIQAFGTERGVKWSDEARLALEWKARWGDRAA | soluble |
| MLKRKVITEFRRHNRSSRWNADAHLRAHERSANVEDDAIMRVDTCQLAANNPIEDFYSAAKCLSSRAFLFGVFDGHGGQQCSRHISTNLYPYLCASVLKKHEVVDYPSDQRLEWLFSSSDGHLPNAFKGRETQHIAEYHKQFKKNANAYTGTVREALKLAFETCDKDLAENALPSAKGVIDRHAAMVAASGSCCTLAHIRSRHLHVANLGDAAAVLGVVNPNGSVTARQLSRAHCVDNADEVHRIRIAHPASESQTVLRGGRLLGELFPLRAFGDVRYKWPLDLQKVVLEPLGHPPPQHLFTPPYLSTSPEVFYHKLTPNDRFLVLATDGLWEWLDPDTVVRLVHDHTLGTITQQPYVPKSGTSLRQVREQLKDRARGEQKTKKPIDENCATHIIRHALGGVSGGATKQYERLIDILQVPPGRARNYRDDITVIVIHFNETFLDGHEDDEE | not soluble |
| MSLTISDVPTQTLPAEGEIGLIDVGSLQLESGAVIDDVCIAVQRWGKLSPARDNVVVVLHALTGDSHITGPAGPGHPTPGWWDGVAGPGAPIDTTRWCAVATNVLGGCRGSTGPSSLARDGKPWGSRFPLISIRDQVQADVAALAALGITEVAAVVGGSMGGARALEWVVGYPDRVRAGLLLAVGARATADQIGTQTTQIAAIKADPDWQSGDYHETGRAPDAGLRLARRFAHLTYRGEIELDTRFANHNQGNEDPTAGGRYAVQSYLEHQGDKLLSRFDAGSYVILTEALNSHDVGRGRGGVSAALRACPVPVVVGGITSDRLYPLRLQQELADLLPGCAGLRVVESVYGHDGFLVETEAVGELIRQTLGLADREGACREGHHHHHH | not soluble |
| MMMDILMYLFETYVHSDADLQVDQDQLEDELLRAGFHQKDIYKALHWLEELAALQQTDAQTAIAKSAPTSMRIYAPEEIERLDLESRGFLLFLEHINVLTPETREMVIDRVMGLETDEFELDDLKWIILMVLFNVPGNENAYTVMEELLYSKEQGILH | not soluble |
| MARTVFCEYLKKEAEGLDFQLYPGELGKRIFDSVSKQAWGEWIKKQTMLVNEKKLNMMNAEHRKLLEQEMVNFLFEGKDVHIEGYVPPSN | not soluble |
| MGSDKIHHHHHHMTQTSSPLRNRYEFLLLFDVENGNPNGDPDSGNAPRVDPEDGHGLVSDVALKRRVRNYVQAAGEQIFIQHGTNLNRPIFQAKQASGGGSKGKQDVDAARRWMCEHFYDVRTFGAVMSTGANAGQVRGPVQLTFARSLDPVFAIEASITRGAVAEDIKNAKTLDDFLNWEAQQDEDKLRTMGRKSLIPYGLFATKGFVSAHLAQGTGFSEADLKLLLEALLNMYEHDRSASKGLMSSRRLFVFRHVGTDSDPQQRARQAVLGCAPAHKLLDLGQVIEVRRKDEHKPARALSDYEVTVHLDRLPAGVELLDLDSWDEARYHDGWQSR | not soluble |
| MGSDKIHHHHHHMIKALYTSITGMNATQNALSVTSNNIANAQTVGYKKQKAMFDDLLYNNSIGAKGDDRYAGTNPKSIGNGVKMSGTVTDYTDGTITLTGGKTQAAMEGNGFFVVGDSKAGNMEFTRKGTFTISSDYYITNTEGQYVFAYPADPSTGNVDLSGIPGPLQVPMGSAIGGIRTSKGVVGGNIPADAKQITQELPVYDNAGNTWTMRVEFKQDGEHNYKYKVYMRNESKKETAFNEVNGAGGEVKFDAVGKPDPVNPEANIPFNGGTVKIDFSKLTNHPTEKTLAVTDVDGRAAATVKDCFIADGGYVMVKYSDGSMKAAGQLAVAMFPNEGGLMKTGNGNYTATNTTGILAMGVSGQNGAGKVRGSAQEGANVDLSVEFVDLMLYQRGFQGNAKVIKISDEVLNEVVNLIR | not soluble |
| MPHVICEPCIGVKDQSCVEVCPVECIYDGGDQFYIHPEECIDCGACVPACPVNAIYPEEDVPEQWKSYIEKNRKLAGLE | soluble |
| MKERMQKTSAQAHDFPQRARTESEWYEGVQTFMWMTEDNIVEVPFDKEHLLEIILSPSNLNKAYKAVVRNNGSGGIDKMSCEQLLSWLKANKDELIISLQSGTYRPNPVRRVEIPKDNGKKRLLGIPTVVDRLVQQAINQVLTLIYERQFSKTSYGFRPQRGCHDALRKAQKIVSEGYIYVVDLDLERFFDTVSHSKLIEILSRTIKDGRVISLIHKYLRSGVINRGMFEMSTEGTPQGGPLSPLLSNIMLNELDKELERRGHPFVRYADDAMIFCKSKRAAKRVRESITLFIEGKLFLKVNHEKTVVSYVKGVKFLGYSFYVKKGDCILLVHSKSKNKMKSKLKELTSRSNGWGYEKRKQKLKDYIRGWIAYFCLAQMKRLCIETDEWLRRRIRMCIWKSWKNAKTRVANLKKCGVSEWQAYQWGNTRLGYWRVSNSPIVTFVMSNDKLRKAGYMEFMDCYLKWCPK | not soluble |
| MGSDKIHHHHHHMERCSVLRIKRLPESLVRKIAAGEVIHNPSFVLKELVENSLDAQADRIVVEIENGGKNMVRVSDNGIGMTREEALLAIEPYTTSKIESEEDLHRIRTYGFRGEALASIVQVSRAKIVTKTEKDALATQLMIAGGKVEEISETHRDTGTTVEVRDLFFNLPVRRKSLKSSAIELRMCREMFERFVLVRNDVDFVFTSDGKIVHSFPRTQNIFERALLILEDLRKGYITFEEELSGLRIKGIVSSREVTRSSRTGEYFYVNGRFVVSEELHEVLMKVYDLPKRSYPVAVLFIEVNPEELDVNIHPSKIVVKFLNEEKVKKSLEETLKRNLARKWYRSVAYEEISSRALSVAEAPSHRWFLVKGKYAVVEVEDGLLFVDLHALHERTIYEEILSKKSWGKRRVKRNITVVLSREEKQKLEEYGFSFQGEEGALKVIEIPEFLTEDVVEEFFRDFPVDEKLKERIALAACKLATKSGEFDEEIASKLLDVFFKKRFERCPHGRPISFKISYEDMDRFFER | not soluble |
| SNASGQQVHRLLGNKLELASTGQTIYHQDINLNNHPWIGDHRVYDTPVIPGVSYIAMTLAAVGVPAAVEDINFQQPLFLAESNTTRETQLMLHTADNVGKQFVEVFSRDGAKQEEWQQHASMSVSENPPPPPTLSVDIPALCEQLRPLDTDTLTEIYASISLVYGPMLQAVRQAWIGEETSLLEIEVPKALAFQLAGEPIHPVLIDACTRLTPDLFDFSSDSGVFWAPWRVKEMTLSHPTPSRFYAYVEEPSRVNEQLQTRSYDIQLLDETGQAFGRINGFTVKRAPSQLFLK | soluble |
| MVKSAVLGFPRIGKNRELKKATEAYWSGKTSAEELLATAKQLRLEHWKLQKAQGVDIIPSNDFSLYDQIMDHSFSFNVIPPRYRLSGLSSLDTYFAMGRGMQRAATADKAAVDVPAGEMVKWFDSNYHFLRPEVSEETDFKLSSTKALDEFLEAKEAGIITRPVLVGPVTYLFIAKAAKGSSIKPIELLPKLLPVYVELIKKLTEAGAEYIQIDEPILTLDLPQEILASYKEAYETLGKIGKLILTTYFGSLQSNADVLKGLPIAGVHVDVVRAPENLDRALAVLGENQIISVGVVSGRNIWKTDFQKATAIIEKAISAVGSERVQVASSSSILHIPHSLSGEDQINPEIKRWFAFAVEKCAELAILTKAANDGPASVRAELEANAADCKARAESPITNVEAVRERQSKVTPQMHERKSPFETRYAKQQASLKLPLFPTTTIGSFPQTKEIRVTRNRFAKGLISQEEYDAFIRKEISDVVKFQEEVGLDVLVHGEPERNDMVQYFGERMEGFVFTVNGWVQSYGSRCVRPPIIVGDVYRPAPMTVKESQYAQSITSKPMKGMLTAPITILRWSFPRDDVHDSVQAQQIALGLRDEVLDLEKAGIKVIQCDEPALREGLPLRRAEWDEYLKWAIDAFRLATAAVQDDTQIHSHFCYSDFNDIFDAIQRLDADVVSIENSKSDMKLLNVLSRYTSCIGPGLFDIHSPRVPPVSEFKERIDAIVKHVPKDHLWLNPDCGLKTRGWPETTADLKNMIAAAREAREQYA | soluble |
| MFSRDRVAYTDLTVNSACDDLFPGVEDVDAQATLQLRAALDAFEEGVFEYHNRASQAGEADAGKHSARGGGQRRTRREKIYASRIPEDRQFFRPVDQQSAEWAAFKPHLWLRGRRIHSADAAAHAGQHHHLHHHTPAGAPQAQQPALAASPVHAGAGLPAGTAGAGADAGAGAGTGAGLELRGTRAVLAPPPPEAEDAADPDRECVLVDHGDFAESLAVQWDAWEAAATRGGPQALRRRRGRPRDEKAVAVGLPPVEPRSAILYDVAEELLPDVWQRLAPLLAPLLARVAEERKKRPASSAAAAFRGAGAGGGGGGGLGGGSFGGGDFEILTFS | not soluble |
| MRVYRVKGEVLVAVCDSDIVGKTFREGDLKIEVKESFYGSEEVGEEEVKRALRNATIANITGKKAVELAARIGIIDRNRVLYIGGCPHAQMVVM | not soluble |
